What was measured:
[1] = tested on: HeLa Kyoto; experiment: solubility in G1/S (NP-40 vs SDS abundance) (log2 ratio); higher = more soluble; details: cell cycle stage: G1/S
[2] = tested on: HeLa Kyoto; experiment: melting temperature (median over replicates), in situ; higher = more thermally stable
[3] = tested on: HeLa Kyoto; experiment: solubility change mitosis vs G1/S (difference of NP-40 vs SDS log2 ratios) (log2 ratio difference); higher = more soluble in mitosis
[4] = tested on: HeLa Kyoto; experiment: thermal stability score vs G1/S (z-score of summed log2 fold changes over temperatures); higher = more thermally stable than in G1/S
[5] = cell cycle stage: early G1 (4.5 h after nocodazole release)
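Wherever melting temperature (median over replicates), in situ is given: HeLa Kyoto cells synchronized by double thymidine or nocodazole block, proteins quantified by TMT10plex mass spectrometry, three independent biological replicates.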
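Wherever solubility change mitosis vs G1/S (difference of NP-40 vs SDS log2 ratios) is given: synchronized HeLa Kyoto cells (double thymidine block for G1/S, nocodazole release for mitosis), protein amounts in NP-40 versus SDS lysates quantified by mass spectrometry, three biological replicates.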
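Wherever solubility in G1/S (NP-40 vs SDS abundance) is given: HeLa Kyoto cells arrested at G1/S by double thymidine block, proteins quantified by TMT10plex mass spectrometry in mild NP-40 versus SDS extracts, three biological replicates.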
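Wherever thermal stability score vs G1/S (z-score of summed log2 fold changes over temperatures) is given: synchronized HeLa Kyoto cells, proteins quantified by TMT10plex mass spectrometry, three biological replicates, mitosis taken 0.5 h after nocodazole release, G1/S directly after double thymidine block.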

Sequence	solubility in G1/S (log2) [1]	melting temperature ([2]; cell cycle stage: G1/S)	melting temperature ([2]; cell cycle stage: mitosis)	solubility change mitosis (log2) [3]	thermal stability score [4, 5]	thermal stability score ([4]; cell cycle stage: mitosis)
MPSASASRKSQEKPREIMDAAEDYAKERYGISSMIQSQEKPDRVLVRVRDLTIQKADEVVWVRARVHTSRAKGKQCFLVLRQQQFNVQALVAVGDHASKQMVKFAANINKESIVDVEGVVRKVNQKIGSCTQQDVELHVQKIYVISLAEPRLPLQLDDAVRPEAEGEEEGRATVNQDTRLDNRVIDLRTSTSQAVFRLQSGICHLFRETLINKGFVEIQTPKIISAASEGGANVFTVSYFKNNAYLAQSPQLYKQMCICADFEKVFSIGPVFRAEDSNTHRHLTEFVGLDIEMAFNYHYHEVMEEIADTMVQIFKGLQERFQTEIQTVNKQFPCEPFKFLEPTLRLEYCEALAMLREAGVEMGDEDDLSTPNEKLLGHLVKEKYDTDFYILDKYPLAVRPFYTMPDPRNPKQSNSYDMFMRGEEILSGAQRIHDPQLLTERALHHGIDLEKIKAYIDSFRFGAPPHAGGGIGLERVTMLFLGLHNVRQTSMFPRDPKRLTP [DARS]	-0.115	49.4 °C	49.2 °C	-0.127	0.0385	4.02
MPSATSHSGSGSKSSGPPPPSGSSGSEAAAGAGAAAPASQHPATGTGAVQTEAMKQILGVIDKKLRNLEKKKGKLDDYQERMNKGERLNQDQLDAVSKYQEVTNNLEFAKELQRSFMALSQDIQKTIKKTARREQLMREEAEQKRLKTVLELQYVLDKLGDDEVRTDLKQGLNGVPILSEEELSLLDEFYKLVDPERDMSLRLNEQYEHASIHLWDLLEGKEKPVCGTTYKVLKEIVERVFQSNYFDSTHNHQNGLCEEEEAASAPAVEDQVPEAEPEPAEEYTEQSEVESTEYVNRQFMAETQFTSGEKEQVDEWTVETVEVVNSLQQQPQAASPSVPEPHSLTPVAQADPLVRRQRVQDLMAQMQGPYNFIQDSMLDFENQTLDPAIVSAQPMNPTQNMDMPQLVCPPVHSESRLAQPNQVPVQPEATQVPLVSSTSEGYTASQPLYQPSHATEQRPQKEPIDQIQATISLNTDQTTASSSLPAASQPQVFQAGTSKPLHSSGINVNAAPFQSMQTVFNMNAPVPPVNEPETLKQQNQYQASYNQSFSSQPHQVEQTELQQEQLQTVVGTYHGSPDQSHQVTGNHQQPPQQNTGFPRSNQPYYNSRGVSRGGSRGARGLMNGYRGPANGFRGGYDGYRPSFSNTPNSGYTQSQFSAPRDYSGYQRDGYQQNFKRGSGQSGPRGAPRGRGGPPRPNRGMPQMNTQQVN [CAPRIN1]	-0.0442	54.8 °C	54.9 °C	0.14	-0.0976	-1.01
MPSKSLVMEYLAHPSTLGLAVGVACGMCLGWSLRVCFGMLPKSKTSKTHTDTESEASILGDSGEYKMILVVRNDLKMGKGKVAAQCSHAAVSAYKQIQRRNPEMLKQWEYCGQPKVVVKAPDEETLIALLAHAKMLGLTVSLIQDAGRTQIAPGSQTVLGIGPGPADLIDKVTGHLKLY [PTRH2]	0.447	52.3 °C	52.6 °C	0.0782	-0.625	-2.48
MPSPRPVLLRGARAALLLLLPPRLLARPSLLLRRSLSAASCPPISLPAAASRSSMDGAGAEEVLAPLRLAVRQQGDLVRKLKEDKAPQVDVDKAVAELKARKRVLEAKELALQPKDDIVDRAKMEDTLKRRFFYDQAFAIYGGVSGLYDFGPVGCALKNNIIQTWRQHFIQEEQILEIDCTMLTPEPVLKTSGHVDKFADFMVKDVKNGECFRADHLLKAHLQKLMSDKKCSVEKKSEMESVLAQLDNYGQQELADLFVNYNVKSPITGNDLSPPVSFNLMFKTFIGPGGNMPGYLRPETAQGIFLNFKRLLEFNQGKLPFAAAQIGNSFRNEISPRSGLIRVREFTMAEIEHFVDPSEKDHPKFQNVADLHLYLYSAKAQVSGQSARKMRLGDAVEQGVINNTVLGYFIGRIYLYLTKVGISPDKLRFRQHMENEMAHYACDCWDAESKTSYGWIEIVGCADRSCYDLSCHARATKVPLVAEKPLKEPKTVNVVQFEPSKGAIGKAYKKDAKLVMEYLAICDECYITEMEMLLNEKGEFTIETEGKTFQLTKDMINVKRFQKTLYVEEVVPNVIEPSFGLGRIMYTVFEHTFHVREGDEQRTFFSFPAVVAPFKCSVLPLSQNQEFMPFVKELSEALTRHGVSHKVDDSSGSIGRRYARTDEIGVAFGVTIDFDTVNKTPHTATLRDRDSMRQIRAEISELPSIVQDLANGNITWADVEARYPLFEGQETGKKETIEE [GARS]	0.0194	59.4 °C	59.5 °C	-0.136	-2.91	-2.03
MPSTDLLMLKAFEPYLEILEVYSTKAKNYVNGHCTKYEPWQLIAWSVVWTLLIVWGYEFVFQPESLWSRFKKKCFKLTRKMPIIGRKIQDKLNKTKDDISKNMSFLKVDKEYVKALPSQGLSSSAVLEKLKEYSSMDAFWQEGRASGTVYSGEEKLTELLVKAYGDFAWSNPLHPDIFPGLRKIEAEIVRIACSLFNGGPDSCGCVTSGGTESILMACKAYRDLAFEKGIKTPEIVAPQSAHAAFNKAASYFGMKIVRVPLTKMMEVDVRAMRRAISRNTAMLVCSTPQFPHGVIDPVPEVAKLAVKYKIPLHVDACLGGFLIVFMEKAGYPLEHPFDFRVKGVTSISADTHKYGYAPKGSSLVLYSDKKYRNYQFFVDTDWQGGIYASPTIAGSRPGGISAACWAALMHFGENGYVEATKQIIKTARFLKSELENIKGIFVFGNPQLSVIALGSRDFDIYRLSNLMTAKGWNLNQLQFPPSIHFCITLLHARKRVAIQFLKDIRESVTQIMKNPKAKTTGMGAIYGMAQTTVDRNMVAELSSVFLDSLYSTDTVTQGSQMNGSPKPH [SGPL1]	-0.0885	53.3 °C	54.3 °C	-0.101	-0.294	0.467
MPVAVGPYGQSQPSCFDRVKMGFVMGCAVGMAAGALFGTFSCLRIGMRGRELMGGIGKTMMQSGGTFGTFMAIGMGIRC [ROMO1]	-0.104	54.5 °C	54.9 °C	0.0021	-0.746	-1.2
MPVFHTRTIESILEPVAQQISHLVIMHEEGEVDGKAIPDLTAPVAAVQAAVSNLVRVGKETVQTTEDQILKRDMPPAFIKVENACTKLVQAAQMLQSDPYSVPARDYLIDGSRGILSGTSDLLLTFDEAEVRKIIRVCKGILEYLTVAEVVETMEDLVTYTKNLGPGMTKMAKMIDERQQELTHQEHRVMLVNSMNTVKELLPVLISAMKIFVTTKNSKNQGIEEALKNRNFTVEKMSAEINEIIRVLQLTSWDEDAWASKDTEAMKRALASIDSKLNQAKGWLRDPSASPGDAGEQAIRQILDEAGKVGELCAGKERREILGTCKMLGQMTDQVADLRARGQGSSPVAMQKAQQVSQGLDVLTAKVENAARKLEAMTNSKQSIAKKIDAAQNWLADPNGGPEGEEQIRGALAEARKIAELCDDPKERDDILRSLGEISALTSKLADLRRQGKGDSPEARALAKQVATALQNLQTKTNRAVANSRPAKAAVHLEGKIEQAQRWIDNPTVDDRGVGQAAIRGLVAEGHRLANVMMGPYRQDLLAKCDRVDQLTAQLADLAARGEGESPQARALASQLQDSLKDLKARMQEAMTQEVSDVFSDTTTPIKLLAVAATAPPDAPNREEVFDERAANFENHSGKLGATAEKAAAVGTANKSTVEGIQASVKTARELTPQVVSAARILLRNPGNQAAYEHFETMKNQWIDNVEKMTGLVDEAIDTKSLLDASEEAIKKDLDKCKVAMANIQPQMLVAGATSIARRANRILLVAKREVENSEDPKFREAVKAASDELSKTISPMVMDAKAVAGNISDPGLQKSFLDSGYRILGAVAKVREAFQPQEPDFPPPPPDLEQLRLTDELAPPKPPLPEGEVPPPRPPPPEEKDEEFPEQKAGEVINQPMMMAARQLHDEARKWSSKPGIPAAEVGIGVVAEADAADAAGFPVPPDMEDDYEPELLLMPSNQPVNQPILAAAQSLHREATKWSSKGNDIIAAAKRMALLMAEMSRLVRGGSGTKRALIQCAKDIAKASDEVTRLAKEVAKQCTDKRIRTNLLQVCERIPTISTQLKILSTVKATMLGRTNISDEESEQATEMLVHNAQNLMQSVKETVREAEAASIKIRTDAGFTLRWVRKTPWYQ [VCL]	0.182	56.4 °C	55.4 °C	-0.0931	-1.64	-1.78
MPVWGGGNKCGACGRTVYHAEEVQCDGRSFHRCCFLCMVCRKNLDSTTVAIHDEEIYCKSCYGKKYGPKGYGYGQGAGTLNMDRGERLGIKPESVQPHRPTTNPNTSKFAQKYGGAEKCSRCGDSVYAAEKIIGAGKPWHKNCFRCAKCGKSLESTTLTEKEGEIYCKGCYAKNFGPKGFGYGQGAGALVHAQ [CSRP2]	-0.179	59.4 °C	54.6 °C	-0.0558	1.39	-3.46
MPYQYPALTPEQKKELSDIAHRIVAPGKGILAADESTGSIAKRLQSIGTENTEENRRFYRQLLLTADDRVNPCIGGVILFHETLYQKADDGRPFPQVIKSKGGVVGIKVDKGVVPLAGTNGETTTQGLDGLSERCAQYKKDGADFAKWRCVLKIGEHTPSALAIMENANVLARYASICQQNGIVPIVEPEILPDGDHDLKRCQYVTEKVLAAVYKALSDHHIYLEGTLLKPNMVTPGHACTQKFSHEEIAMATVTALRRTVPPAVTGITFLSGGQSEEEASINLNAINKCPLLKPWALTFSYGRALQASALKAWGGKKENLKAAQEEYVKRALANSLACQGKYTPSGQAGAAASESLFVSNHAY [ALDOA]	0.345	58.2 °C	58.5 °C	-0.0218	-1.95	-2.35
MQAARMAASLGRQLLRLGGGSSRLTALLGQPRPGPARRPYAGGAAQLALDKSDSHPSDALTRKKPAKAESKSFAVGMFKGQLTTDQVFPYPSVLNEEQTQFLKELVEPVSRFFEEVNDPAKNDALEMVEETTWQGLKELGAFGLQVPSELGGVGLCNTQYARLVEIVGMHDLGVGITLGAHQSIGFKGILLFGTKAQKEKYLPKLASGETVAAFCLTEPSSGSDAASIRTSAVPSPCGKYYTLNGSKLWISNGGLADIFTVFAKTPVTDPATGAVKEKITAFVVERGFGGITHGPPEKKMGIKASNTAEVFFDGVRVPSENVLGEVGSGFKVAMHILNNGRFGMAAALAGTMRGIIAKAVDHATNRTQFGEKIHNFGLIQEKLARMVMLQYVTESMAYMVSANMDQGATDFQIEAAISKIFGSEAAWKVTDECIQIMGGMGFMKEPGVERVLRDLRIFRIFEGTNDILRLFVALQGCMDKGKELSGLGSALKNPFGNAGLLLGEAGKQLRRRAGLGSGLSLSGLVHPELSRSGELAVRALEQFATVVEAKLIKHKKGIVNEQFLLQRLADGAIDLYAMVVVLSRASRSLSEGHPTAQHEKMLCDTWCIEAAARIREGMAALQSDPWQQELYRNFKSISKALVERGGVVTSNPLGF [ACADVL]	0.117	54.9 °C	55 °C	-0.118	0.172	-2.03
MQAERGARGGRGRRPGRGRPGGDRHSERPGAAAAVARGGGGGGGGDGGGRRGRGRGRGFRGARGGRGGGGAPRGSRREPGGWGAGASAPVEDDSDAETYGEENDEQGNYSKRKIVSNWDRYQDIEKEVNNESGESQRGTDFSVLLSSAGDSFSQFRFAEEKEWDSEASCPKQNSAFYVDSELLVRALQELPLCLRLNVAAELVQGTVPLEVPQVKPKRTDDGKGLGMQLKGPLGPGGRGPIFELKSVAAGCPVLLGKDNPSPGPSRDSQKPTSPLQSAGDHLEEELDLLLNLDAPIKEGDNILPDQTSQDLKSKEDGEVVQEEEVCAKPSVTEEKNMEPEQPSTSKNVTEEELEDWLDSMIS [AVEN]	0.312	52.9 °C	52.6 °C	0.0958	-0.264	-2.4
MQAGKPILYSYFRSSCSWRVRIALALKGIDYKTVPINLIKDRGQQFSKDFQALNPMKQVPTLKIDGITIHQSLAIIEYLEEMRPTPRLLPQDPKKRASVRMISDLIAGGIQPLQNLSVLKQVGEEMQLTWAQNAITCGFNALEQILQSTAGIYCVGDEVTMADLCLVPQVANAERFKVDLTPYPTISSINKRLLVLEAFQVSHPCRQPDTPTELRA [GSTZ1]	0.447	53.5 °C	52.9 °C	0.0886	-2.37	-2.09

Source: the supplement of paper PMC5998384
